Key:
monomeric Aβ = molecular target: T1, monomeric Aβ (Homo sapiens, UniProt P05067); experiment: ITC titration with monomeric Aβ sample; type: binding
T1 construct: In this work, a depsipeptide derivative of Aβ(1–42) was utilized; made in house; host or cells: chemical peptide synthesis (no expression host)

oligomeric Aβ = molecular target: T2, oligomeric Aβ (Homo sapiens, UniProt P05067); experiment: ThT binding experiment on oligomeric Aβ; settings: oligomeric Aβ + ligand 1∶1, up to 24 h
T2 construct: a depsipeptide derivative of Aβ(1–42) was utilized; made in house; host or cells: chemical peptide synthesis (no expression host)
Description: The data on 7 were in agreement with its largely helical structure, also found via NMR. […] This was in accord with the NMR results obtained for the recognition segment 1. The secondary structure was probed also with ThT binding experiments (Figure 9B). Pure Aβ oligomers bound ThT at a certain level. This was in accord with the staining with antibody OC; both are capable of recognizing the fibrillar (or protofibrillar) oligomers. […] The latter process is similar to affinity precipitation.
(A) Observed ellipticities in ECD for 36 μM Aβ oligomer (thick black), 9 μM 7 (thin black), and 36 μM Aβ +9 μM 7 (thick dashed). The hypothetical sum of the ECD curves of the pure samples (thin dashed). (B) ThT binding experiment carried out on 36 µM oligomeric Aβ (white bars) and on 36 µM oligomeric Aβ +7 1∶1 mixtures. The relative fluorescence values were monitored up to 24 h.
ThT (Sigma-Aldrich) was dissolved in 50 mM NaH2PO4/Na2HPO4 buffer (pH = 7.0) to a final concentration of 25 μM. […] Two identical 50 μM Aβ oligomer samples were prepared and one of them was mixed with 7 to a final concentration of 50 μM, and the ThT signal intensity was monitored up to further 24 h. […] ThT fluorescence was measured on a plate reader at […] and λem = 480 nm. Data mean values and S.D. were calculated from three parallel measurements.

[1] = molecular target: T3, Aβ oligomers (HMW and LMW fractions) (Homo sapiens, UniProt P05067); experiment: SEC analysis of Aβ oligomer – ligand mixtures (affinity precipitation); settings: 50 µM Aβ oligomers, injected after filtration
T3 construct: a depsipeptide derivative of Aβ(1–42) was utilized; made in house; host or cells: chemical peptide synthesis (no expression host)
Protocol: This hypothesis was tested via SEC analysis (Figure 10A). Mixtures of 50 µM Aβ oligomers with 7 in 0.25 and 1.0 equivalents were injected on the SEC column after filtration. […] We concluded that the affinity precipitation occurs for the HMW component, but the LMW fraction is also affected at higher ligand concentrations. […] Thus it was possible to test if the LMW fraction co-elutes with 7. […] The HMW precipitate was also tested for the presence of 7 with LC-MS, and the result confirmed the heterocomplex nature of the product (Figure 10C).
Figure 10 Lower tendency of the LMW Aβ oligomer fraction to affinity precipitation. (A) SEC analysis of pure Aβ oligomers (black) and mixtures of 50 µM Aβ oligomers with 7 in 0.25 (green) and 1.0 (blue) equivalents. The samples were injected on the SEC column after filtration. […] (B) LC-MS results on the LMW fraction taken at 19 min. […] (C) LC-MS results on the HMW precipitate, which confirmed the heterocomplex nature of the product.
iso-Aβ(1–42) was dissolved in sodium hydrocarbonate buffered saline (pH 7.4) to 50 µM and incubated for 24 h at 37°C. The oligomeric Aβ was loaded onto an Äkta Purifier FPLC system (GE Healthcare, UK) equipped with a Superose 6 10 300 column. Sample was eluted at a flow rate of 0.5 ml/min. FPLC chromatogram was taken at 280 nm and 1 ml fractions were collected during the separation.

Aβ oligomers = molecular target: T4, Aβ oligomers (Homo sapiens, UniProt P05067); experiment: Precipitation study at 1 µM Aβ oligomer, supernatant Aβ by ELISA; settings: 1 µM Aβ oligomer, 0.2, 0.5 and 1.0 equivalents of ligand, 15000× g, 3 h
T4 construct: a depsipeptide derivative of Aβ(1–42) was utilized; made in house; host or cells: chemical peptide synthesis (no expression host)
Protocol: The extent of precipitation was also tested at an Aβ oligomer concentration of 1 µM. The Aβ oligomer sample was mixed with 0, 0.2, 0.5 and 1.0 equivalents of 7, centrifuged at 15000× g for 3 h and the supernatant was tested for residual Aβ concentration by using a standard ELISA (Figure 11).
Aβ concentrations determined by ELISA in supernatants obtained from samples containing 1 µM Aβ oligomer mixed with 0, 0.2, 0.5 and 1.0 equivalents of 7 and centrifuged at 15000×g (room temperature, 3 h).
1 μM solution of the Aβ oligomer sample was prepared. This solution was divided to 4×15 ml fractions and 7 was added to three samples in 1, 0.5 or 0.2 μM final concentration, respectively. All the four samples were divided into […] (2×5 ml). One fraction from each sample was centrifuged at 15000×g at RT for 3 hours in a Roth MIKRO 200 Microcentrifuge (Carl-Roth GmbH Karlsruhe, Germany) centrifuge. […]
Different amounts of Aβ (0.0001, 0.0003, 0.001, 0.003, 0.01, 0.03, 0.1, 0.3 µg pro well) were coated in the wells (6 parallels for each concentration) of a 96 well plate. […] Without using a stopping reagent, the absorbance at 370 nm was constantly monitored using a FLUOstar OPTIMA Multidetection Microplate Reader (BMG LABTECH, Offenburg, Germany). Data values were read at the saturation point of the signal curves. The supernatants were analysed according to the concentration calibration.

For N=C(N)NCCC[C@@H](CC(=O)N[C@H]1CCCC[C@@H]1C(=O)N[C@H]1CCCC[C@@H]1C(=O)N[C@@H](CC(=O)O)CC(=O)N[C@H]1CCCC[C@@H]1C(=O)NCC(=O)NCC(=O)N[C@@H](CSC1CC(=O)N(CCC(=O)NCCNC(=O)CCN(CCC(=O)NCCNC(=O)CCN2C(=O)CC(SC[C@H](NC(=O)CNC(=O)CNC(=O)[C@H]3CCCC[C@@H]3NC(=O)C[C@H](CC(=O)O)NC(=O)[C@H]3CCCC[C@@H]3NC(=O)[C@H]3CCCC[C@@H]3NC(=O)C[C@H](CCCNC(=N)N)NC(=O)[C@H]3CCCC[C@@H]3N)C(N)=O)C2=O)CCN(CCC(=O)NCCNC(=O)CCN2C(=O)CC(SC[C@H](NC(=O)CNC(=O)CNC(=O)[C@H]3CCCC[C@@H]3NC(=O)C[C@H](CC(=O)O)NC(=O)[C@H]3CCCC[C@@H]3NC(=O)[C@H]3CCCC[C@@H]3NC(=O)C[C@H](CCCNC(=N)N)NC(=O)[C@H]3CCCC[C@@H]3N)C(N)=O)C2=O)CCC(=O)NCCNC(=O)CCN2C(=O)CC(SC[C@H](NC(=O)CNC(=O)CNC(=O)[C@H]3CCCC[C@@H]3NC(=O)C[C@H](CC(=O)O)NC(=O)[C@H]3CCCC[C@@H]3NC(=O)[C@H]3CCCC[C@@H]3NC(=O)C[C@H](CCCNC(=N)N)NC(=O)[C@H]3CCCC[C@@H]3N)C(N)=O)C2=O)C1=O)C(N)=O)NC(=O)[C@H]1CCCC[C@@H]1N (some centres unmarked) [Compound 7], which “Binding in ITC titration with monomeric Aβ sample” value (monomeric Aβ) is on record?
The value was “did not exhibit submicromolar binding”.

What about the “Effect on ThT binding of Aβ oligomers” value (oligomeric Aβ) of the same compound?
Its value is “no significant effect on the ThT binding”.

And the “SEC: effect on HMW and LMW Aβ fractions at 0.25 equivalents of ligand” value ([1]; 0.25 equivalents)?
Its value is “the HMW fraction fully precipitated and disappeared from the SEC chromatogram, whereas the LMW fraction remained intact”.

And the “SEC: effect on HMW and LMW Aβ fractions at 1.0 equivalents of ligand” value ([1]; 1.0 equivalents)?
Its value is “the HMW fraction again disappeared and a partial decrease was observed for the LMW fraction”.

What about the “Loss of soluble Aβ after centrifugation (supernatant ELISA)” value (Aβ oligomers) of the same compound?
Its value is “no significant loss of soluble material”.

Source: paper PMC3408453, “A Foldamer-Dendrimer Conjugate Neutralizes Synaptotoxic β-Amyloid Oligomers” (PLoS ONE, 2012)
